Laboratory results: doi:10.1101/485656 (bioRxiv, 2018)
Blank lines part the entries; values can stand above or below the molecule they belong to.

What was measured:
FtsA (Escherichia coli) [1] = molecular target: FtsA (Escherichia coli) (UniProt P0ABH0); assay: MST
[2] = molecular target: FtsZ/FtsA co-filaments on a supported lipid bilayer (Escherichia coli) (UniProt P0ABH0); assay: single-molecule tracking by TIRF on supported lipid bilayers
FtsA (Escherichia coli) [3] = molecular target: FtsA (Escherichia coli) (UniProt P0ABH0); assay: TIRF colocalisation on supported lipid bilayers
[4] = molecular target: FtsZ/FtsA co-filaments on a supported lipid bilayer (Escherichia coli) (UniProt P0ABH0); assay: TIRF colocalisation on supported lipid bilayers
AUC = molecular target: the molecule itself; assay: AUC

Molecule: FtsQ_(cyto)His (peptide)
- Pearson correlation coefficient of colocalisation with FtsZ [4]: 0.4

Molecule: FtsN_(cyto-D5N)His (peptide)
- Kd (FtsA (Escherichia coli) [1]): 160 nM
- Pearson correlation coefficient of colocalisation with FtsZ [4]: 0.75

B1: full-length FtsN with a C-terminal oligohistidine tag (natural protein, Escherichia coli, UniProt P29131 1-319, looked up)
chain: MAQRDYVRRSQPAPSRRKKSTSRKKQRNLPAVSPAMVAIAAAVLVTFIGGLYFITHHKKEESETLQSQKVTGNGLPPKPEERWRYIKELESRQPGVRAPTEPSAGGEVKTPEQLTPEQRQLLEQMQADMRQQPTQLVEVPWNEQTPEQRQQTLQRQRQAQQLAEQQRLAQQSRTTEQSWQQQTRTSQAAPVQAQPRQSKPASSQQPYQDLLQTPAHTTAQSKPQQAAPVARAADAPKPTAEKKDERRWMVQCGSFRGAEQAETVRAQLAFEGFDSKITTNNGWNRVVIGPVKGKENADSTLNRLKMAGHTNCIRLAAGG
- binding result (AUC): binds

Results, then the molecule that gave them:

- Kd (FtsA (Escherichia coli) [1]): 324 nM
- average duration of confinement [2]: 0.41 s
- frequency of confinement events, fold over the DDEE mutant [2]: 3 fold
- weight of the population with short displacements, fold over FtsN (cyto-DDEE)His [2]: 3 fold
- weighted contribution of the confined population, fold over FtsN (cyto-DDEE)His [2]: 2 fold
- Pearson correlation coefficient of colocalisation with FtsA (FtsA (Escherichia coli) [3]): 0.8
- Pearson correlation coefficient of colocalisation with FtsZ [4]: 0.86
- fold lower colocalization efficiency with GMPCPP against GTP [4]: 1.5 fold
Molecule: FtsN_(cyto)His (peptide)

- Pearson correlation coefficient of FtsA/FtsZ colocalisation (FtsA (Escherichia coli) [3]): 0.79
Molecule: FtsZ (natural protein)
